This series is described as follows: self-splicing fitness, log relative to wild type (ln ratio); higher = more splicing; Tetrahymena group I intron in knt gene, E. coli kanamycin selection, DiMSum; sequences stand for … in CUCUCU…GGAGGGAAAAGUUAUCAGGCAUGCACCUGGUAGCUAGUCUUUAAACCAAUAGAUUGCAUCGGUUUAAAAGGCAAGACCGUCAAAUUGCGGGAAAGGGGUCAACAGCCGUUCAGUACCAAGUCUCAGGGGAAACUUUGAGAUGGCCUUGCAAAGGGUAUGGUAAUAAGCUGACGGACAUGGUCCUAACCACGCAGCCAAGUCCUAAGUCAACAGAUCUUCUGUUGAUAUGGAUGCAGUUCACAGACUAAAUGUCGGUCGGGGAAGAUGUAUUCUUCUCAUAAGAUAUAGUCGGACCUCUCCUUAAUGGGAGCUAGCGGAUGAAGUGAUGCAACACUGGAGCCGCUGGGAACUAAUUUGUAUGCGAAAGUAUAUUGAUUAGUUUUGGAGUACUCGUGGUCG
The method, boiled down:
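Six replicate transformations of E. coli BL21(DE3) with a pET-22b(+) library were grown overnight at 37°C or 30°C. The library randomised all eight P1ex-region intron nucleotides, the intron lying in the knt kanamycin-resistance gene, and plates were LB agar with or without 25 μg/mL kanamycin plus 100 μg/mL carbenicillin, 50 μM IPTG and 0.2% rhamnose. Pooled colonies were amplicon-sequenced on an Illumina HiSeq 2500, and fitness is the DiMSum error-weighted combination of wild-type-normalised replicate fold changes, kanamycin versus none.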

Here are results for 79 sequences from the supplement of paper PMC7877785.

± gives the uncertainty stated by the source.

Consider CCUCAGCAAUAUUACGGGAC, for which the “self-splicing fitness (ln)” value reads like this: (30 °C) -3.63 ± 0.23; (37 °C) -1.98 ± 0.26.
For UGUAAGCAAUAUUACGGGUC, under “30 °C”, the “self-splicing fitness (ln)” value is -3.01 ± 0.41.
Regarding UGCGAGCAAUAUUACGUGAA, the “self-splicing fitness (ln)” value (37 °C) was -2.32 ± 0.16.
For UCAUAGCAAUAUUACGAAAA, the “self-splicing fitness (ln)” value (30 °C) is -2.62 ± 0.48.
Regarding AUUGAGCAAUAUUACGACGU, the “self-splicing fitness (ln)” value was -0.46 ± 0.12 (30 °C) and -0.115 ± 0.13 (37 °C).
For CGGCAGCAAUAUUACGAUUU the same measures were -3.18 ± 0.22 and -2.64 ± 0.23.
For GUCGAGCAAUAUUACGGAAA, in that order: -2.83 ± 0.23 and -2.11 ± 0.22.
For the sequence CCCCAGCAAUAUUACGGGGU, the “self-splicing fitness (ln)” value is -3.9 ± 0.12 (30 °C) and -2.54 ± 0.11 (37 °C).
For AUAAAGCAAUAUUACGUUUU the same measures were -2.37 ± 0.097 and -1.11 ± 0.12.
CGGGAGCAAUAUUACGAGAU: the “self-splicing fitness (ln)” value (37 °C) is -2.17 ± 0.35.
On to GAGCAGCAAUAUUACGAUUG, for which the “self-splicing fitness (ln)” value (30 °C) is -2.17 ± 0.083 and the “self-splicing fitness (ln)” value (37 °C) was -2.41 ± 0.17.
UUGUAGCAAUAUUACGGACC: the “self-splicing fitness (ln)” value runs as follows: (30 °C) -2.38 ± 0.25; (37 °C) -1.46 ± 0.34.
With GCCCAGCAAUAUUACGACAU, the “self-splicing fitness (ln)” value (30 °C) is -1.515 ± 0.012 and the “self-splicing fitness (ln)” value (37 °C) is -0.82 ± 0.032.
For UUGUAGCAAUAUUACGGAGC, in that order: -3.08 ± 0.25 and -2.38 ± 0.29.
For GCCCAGCAAUAUUACGCUGU the same measures were -0.516 ± 0.063 and -0.482 ± 0.092.
For GCUCAGCAAUAUUACGCACA the same measures were -1.05 ± 0.1 and 0.0263 ± 0.11.
For the sequence AGGUAGCAAUAUUACGUAAA, the “self-splicing fitness (ln)” value (30 °C) is -2.285 ± 0.018 and the “self-splicing fitness (ln)” value (37 °C) was -1.39 ± 0.034.
Take CUUUAGCAAUAUUACGCUGU: the “self-splicing fitness (ln)” value (30 °C) was -2.75 ± 0.25 and the “self-splicing fitness (ln)” value (37 °C) is -2.35 ± 0.37.
For AACUAGCAAUAUUACGGCAC the same measures were -0.766 ± 0.079 and -0.192 ± 0.11.
GUGGAGCAAUAUUACGUCUG: the “self-splicing fitness (ln)” value (37 °C) was -1.75 ± 0.32.
Still for that read-out and setting: for GAGUAGCAAUAUUACGCCGU the value was -1.08 ± 0.27.
Consider GUAGAGCAAUAUUACGAGGC, for which the “self-splicing fitness (ln)” value is, setting by setting: (30 °C) -3.01 ± 0.19; (37 °C) -2.63 ± 0.29.
For UGGCAGCAAUAUUACGUGAA the same measures were -0.78 ± 0.058 and -0.431 ± 0.084.
For ACUCAGCAAUAUUACGCGAC, in that order: -2.16 ± 0.14 and -1.85 ± 0.15.
For AGUGAGCAAUAUUACGAUGA, in that order: -4.11 ± 0.39 and -2.24 ± 0.3.
As to UUUGAGCAAUAUUACGCAUU, the “self-splicing fitness (ln)” value is -2.65 ± 0.27 (30 °C) and -1.09 ± 0.2 (37 °C).
With CUGUAGCAAUAUUACGUAGA, the “self-splicing fitness (ln)” value by setting is: (30 °C) -2.66 ± 0.12; (37 °C) -2.51 ± 0.16.
For CGCGAGCAAUAUUACGAUGA, in that order: -3.39 ± 0.32 and -1.7 ± 0.18.
For AUCCAGCAAUAUUACGCACG, in that order: -1.68 ± 0.12 and -0.334 ± 0.13.
For AUGUAGCAAUAUUACGAACU the same measures were -0.642 ± 0.12 and 0.131 ± 0.15.
With CUGCAGCAAUAUUACGCGGU, the “self-splicing fitness (ln)” value reads like this: (30 °C) -2.5 ± 0.15; (37 °C) -2.89 ± 0.23.
In the case of UCUGAGCAAUAUUACGGCAU, the “self-splicing fitness (ln)” value (30 °C) was -2.79 ± 0.27.
As for UGAAAGCAAUAUUACGCUUA, the “self-splicing fitness (ln)” value (30 °C) was -1.26 ± 0.17 and the “self-splicing fitness (ln)” value (37 °C) is -0.254 ± 0.17.
For GGGAAGCAAUAUUACGCAGC the same measures were -1.29 ± 0.14 and -1.12 ± 0.19.
For ACGCAGCAAUAUUACGUCAA the same measures were -3.09 ± 0.2 and -2.57 ± 0.15.
Turning to UUGGAGCAAUAUUACGGUCA, the “self-splicing fitness (ln)” value is -1.21 ± 0.16 (30 °C) and -2.65 ± 0.23 (37 °C).
For CCUGAGCAAUAUUACGUCGG the same measures were -4.36 ± 0.36 and -2.47 ± 0.23.
For UGGCAGCAAUAUUACGGCAC the same measures were -2.27 ± 0.25 and -1.17 ± 0.16.
For CUAUAGCAAUAUUACGUUGU, in that order: -3.77 ± 0.19 and -3.85 ± 0.33.
Turning to UACUAGCAAUAUUACGACGC, the “self-splicing fitness (ln)” value by setting is: (30 °C) -2.01 ± 0.25; (37 °C) 0.0923 ± 0.18.
On to ACCAAGCAAUAUUACGAUGA, for which the “self-splicing fitness (ln)” value is, setting by setting: (30 °C) -1.97 ± 0.1; (37 °C) -1.36 ± 0.11.
For AAGUAGCAAUAUUACGGUCA the same measures were -0.974 ± 0.094 and -0.354 ± 0.1.
For GCGUAGCAAUAUUACGCAUU, in that order: -2.88 ± 0.2 and -2.58 ± 0.27.
For AGACAGCAAUAUUACGCUCC, in that order: -3.32 ± 0.48 and -1.64 ± 0.19.
Consider AAAGAGCAAUAUUACGUGUG, for which the “self-splicing fitness (ln)” value runs as follows: (30 °C) -3.84 ± 0.18; (37 °C) -2.57 ± 0.19.
For CACAAGCAAUAUUACGAAUC the same measures were -4.04 ± 0.46 and -2.37 ± 0.18.
For UGCGAGCAAUAUUACGACUG, in that order: -0.639 ± 0.17 and -0.0696 ± 0.2.
For GCGCAGCAAUAUUACGAUAU, in that order: -1.18 ± 0.078 and -0.433 ± 0.1.
Consider CUCGAGCAAUAUUACGCAUC, for which the “self-splicing fitness (ln)” value (30 °C) was -3.3 ± 0.22 and the “self-splicing fitness (ln)” value (37 °C) is -2.49 ± 0.3.
For UUAGAGCAAUAUUACGUGGG the same measures were -3.41 ± 0.22 and -1.92 ± 0.17.
As to AGUGAGCAAUAUUACGCUCA, under “37 °C”, the “self-splicing fitness (ln)” value is -2.13 ± 0.25.
On to CACCAGCAAUAUUACGUUGU, for which the “self-splicing fitness (ln)” value runs as follows: (30 °C) -3.58 ± 0.14; (37 °C) -2.29 ± 0.14.
For UACCAGCAAUAUUACGACGU the same measures were -2.11 ± 0.082 and -0.692 ± 0.089.
On to AAGAAGCAAUAUUACGCAUA, for which the “self-splicing fitness (ln)” value is -1.29 ± 0.11 (30 °C) and -0.0901 ± 0.12 (37 °C).
For CUAGAGCAAUAUUACGCGCA the same measures were -1.95 ± 0.33 and -1.21 ± 0.35.
With UUGAAGCAAUAUUACGACUG, the “self-splicing fitness (ln)” value reads like this: (30 °C) -0.106 ± 0.073; (37 °C) 0.183 ± 0.097.
Take UGCGAGCAAUAUUACGAGGA: the “self-splicing fitness (ln)” value runs as follows: (30 °C) -3.56 ± 0.18; (37 °C) -2.75 ± 0.18.
For AAAUAGCAAUAUUACGCAAA, the “self-splicing fitness (ln)” value was -2.3 ± 0.24 (30 °C) and -1.66 ± 0.21 (37 °C).
For AAUGAGCAAUAUUACGUAAU, in that order: -3.08 ± 0.17 and -1.33 ± 0.15.
For GUCGAGCAAUAUUACGCGGG the same measures were -2.85 ± 0.15 and -1.94 ± 0.19.
Turning to GGCGAGCAAUAUUACGAGGG, where the note is “30 °C”, the “self-splicing fitness (ln)” value is -0.768 ± 0.24.
Regarding UAGCAGCAAUAUUACGAGAG, the “self-splicing fitness (ln)” value is -2.8 ± 0.2 (30 °C) and -3.15 ± 0.29 (37 °C).
For CAAGAGCAAUAUUACGGUCC the same measures were -2.01 ± 0.35 and -1.76 ± 0.33.
As for CUUGAGCAAUAUUACGCACC, the “self-splicing fitness (ln)” value (37 °C) is -1.68 ± 0.4.
AGAGAGCAAUAUUACGAAAA: under “37 °C”, the “self-splicing fitness (ln)” value is -1.5 ± 0.5.
Still for that read-out and setting: the value for UGGGAGCAAUAUUACGUCCU was -1.3 ± 0.26.
UUCUAGCAAUAUUACGACCG: the “self-splicing fitness (ln)” value was -1.13 ± 0.26 (30 °C) and -1.07 ± 0.42 (37 °C).
For GCUCAGCAAUAUUACGAAUA, in that order: -1.02 ± 0.066 and -0.439 ± 0.072.
For CCAGAGCAAUAUUACGCAUC, in that order: -2.56 ± 0.28 and -1.99 ± 0.31.
For CAAGAGCAAUAUUACGCAUG, in that order: -3.69 ± 0.44 and -2.53 ± 0.29.
Consider UGAUAGCAAUAUUACGGCGU, for which the “self-splicing fitness (ln)” value was -2.1 ± 0.18 (30 °C) and -1.22 ± 0.16 (37 °C).
Consider AGUCAGCAAUAUUACGAGGC, for which the “self-splicing fitness (ln)” value runs as follows: (30 °C) -2.81 ± 0.31; (37 °C) -0.606 ± 0.31.
For GUACAGCAAUAUUACGCUGU the same measures were -3.5 ± 0.16 and -3 ± 0.21.
Consider AAGUAGCAAUAUUACGUGGG, for which the “self-splicing fitness (ln)” value is -3.49 ± 0.2 (30 °C) and -3.24 ± 0.23 (37 °C).
For UUAAAGCAAUAUUACGGCCC, in that order: -1.67 ± 0.17 and 0.305 ± 0.23.
For GCUGAGCAAUAUUACGCCUC, in that order: -1.67 ± 0.42 and -1.53 ± 0.49.
For ACGGAGCAAUAUUACGGAUG, in that order: -2.66 ± 0.31 and -1.17 ± 0.28.
Turning to CCACAGCAAUAUUACGUGCA, the “self-splicing fitness (ln)” value runs as follows: (30 °C) -4.24 ± 0.24; (37 °C) -2.5 ± 0.12.
For GUGAAGCAAUAUUACGGCUU, in that order: -4.92 ± 0.36 and -3.3 ± 0.26.
